The values that follow come from US20230365662A1.

Sequences and labels used below:
B1: KB001 mouse Fab VL V29L (Fab, V domains shown)
VH: EVQLKQSGPGLVAPSQSLSITCTVSGFSLSIYSVHWVRQPPGKGLEWLGMIWGGGSSDYNSALKSRLSISKDNSKSQVFLKMNSLQTDDTAMYYCARNGNFYAMDYWGQGTSVTVSS
VL: QIVLTQSPAIMSASLGERVTMTCTASSSLSSSFLHWYQQKPGSSPQLWIYSTSNLASGVPARFSGSGSGTSYSLTISSMEAEDAATYYCHQYHHSPYIYTFGGGTKLEIK
B2: KB001 mouse Fab VL S53W (Fab, V domains shown)
VH: B1 VH
VL: B1 VL with L29V, S53W
B3: KB001 mouse Fab VL L34V (Fab, V domains shown)
VH: B1 VH
VL: B1 VL with L29V, L34V
B4: KB001 mouse Fab VL T52R (Fab, V domains shown)
VH: B1 VH
VL: B1 VL with L29V, T52R
B5: KB001 mouse Fab VL S53R (Fab, V domains shown)
VH: B1 VH
VL: B1 VL with L29V, S53R
B6: KB001 mouse Fab VL S32G (Fab, V domains shown)
VH: B1 VH
VL: B1 VL with L29V, S32G
B7: KB001 mouse Fab VL S32W (Fab, V domains shown)
VH: B1 VH
VL: B1 VL with L29V, S32W
B8: KB001 mouse Fab VL S32A (Fab, V domains shown)
VH: B1 VH
VL: B1 VL with L29V, S32A
B9: KB001 mouse Fab VL L34M (Fab, V domains shown)
VH: B1 VH
VL: B1 VL with L29V, L34M
B10: KB001 mouse Fab VL S53A (Fab, V domains shown)
VH: B1 VH
VL: B1 VL with L29V, S53A
B11: KB001 mouse Fab VL S53Y (Fab, V domains shown)
VH: B1 VH
VL: B1 VL with L29V, S53Y
B12: KB001 mouse Fab VL S53L (Fab, V domains shown)
VH: B1 VH
VL: B1 VL with L29V, S53L
B13: KB001 mouse Fab VL S30I (Fab, V domains shown)
VH: B1 VH
VL: B1 VL with L29V, S30I
B14: KB001 mouse Fab VL S53C (Fab, V domains shown)
VH: B1 VH
VL: B1 VL with L29V, S53C
B15: KB001 mouse Fab VL S30K (Fab, V domains shown)
VH: B1 VH
VL: B1 VL with L29V, S30K
B16: KB001 mouse Fab VL S53E (Fab, V domains shown)
VH: B1 VH
VL: B1 VL with L29V, S53E
B17: KB001 mouse Fab VL S30T (Fab, V domains shown)
VH: B1 VH
VL: B1 VL with L29V, S30T
B18: KB001 mouse Fab VL T52M (Fab, V domains shown)
VH: B1 VH
VL: B1 VL with L29V, T52M
B19: KB001 mouse Fab VL S30L (Fab, V domains shown)
VH: B1 VH
VL: B1 VL with L29V, S30L
B20: KB001 mouse Fab VL S32Q (Fab, V domains shown)
VH: B1 VH
VL: B1 VL with L29V, S32Q
B21: KB001 mouse Fab VL S30E (Fab, V domains shown)
VH: B1 VH
VL: B1 VL with L29V, S30E
B22: KB001 mouse Fab VL S30M (Fab, V domains shown)
VH: B1 VH
VL: B1 VL with L29V, S30M
B23: KB001 mouse Fab VL S32Y (Fab, V domains shown)
VH: B1 VH
VL: B1 VL with L29V, S32Y
B24: KB001 mouse Fab VL T52L (Fab, V domains shown)
VH: B1 VH
VL: B1 VL with L29V, T52L
B25: KB001 mouse Fab VL T52K (Fab, V domains shown)
VH: B1 VH
VL: B1 VL with L29V, T52K
B26: KB001 mouse Fab VL S30D (Fab, V domains shown)
VH: B1 VH
VL: B1 VL with L29V, S30D
B27: KB001 mouse Fab VL S32P (Fab, V domains shown)
VH: B1 VH
VL: B1 VL with L29V, S32P
B28: KB001 mouse Fab VL S31D (Fab, V domains shown)
VH: B1 VH
VL: B1 VL with L29V, S31D
B29: KB001 mouse Fab VL S30W (Fab, V domains shown)
VH: B1 VH
VL: B1 VL with L29V, S30W
B30: KB001 mouse Fab VL F33N (Fab, V domains shown)
VH: B1 VH
VL: B1 VL with L29V, F33N
B31: KB001 mouse Fab VL L34I (Fab, V domains shown)
VH: B1 VH
VL: B1 VL with L29V, L34I
B32: KB001 mouse Fab VL S30H (Fab, V domains shown)
VH: B1 VH
VL: B1 VL with L29V, S30H
B33: KB001 mouse Fab VL S53D (Fab, V domains shown)
VH: B1 VH
VL: B1 VL with L29V, S53D
B34: KB001 mouse Fab VL S31W (Fab, V domains shown)
VH: B1 VH
VL: B1 VL with L29V, S31W
B35: KB001 mouse Fab VL S31Q (Fab, V domains shown)
VH: B1 VH
VL: B1 VL with L29V, S31Q
B36: KB001 mouse Fab VL S30R (Fab, V domains shown)
VH: B1 VH
VL: B1 VL with L29V, S30R
B37: KB001 mouse Fab VL F33H (Fab, V domains shown)
VH: B1 VH
VL: B1 VL with L29V, F33H

Numbering of substitutions follows the chain as printed. In names and notes the source's numbering stands. Several values for one entry are separate records, joined by “and”; a condition that tells them apart may be missing. Equal entries are not always repeated.

For the assay, the target named is HRgpA-6H (Porphyromonas gingivalis) (UniProt P28784). The assay is described as follows: ELISA, FASEBA Fab on coated HRgpA-6H. (In an ELISA, binding on a coated surface is turned into a signal by an enzyme label.)
UniProt P28784, sequence (P28784 228-991): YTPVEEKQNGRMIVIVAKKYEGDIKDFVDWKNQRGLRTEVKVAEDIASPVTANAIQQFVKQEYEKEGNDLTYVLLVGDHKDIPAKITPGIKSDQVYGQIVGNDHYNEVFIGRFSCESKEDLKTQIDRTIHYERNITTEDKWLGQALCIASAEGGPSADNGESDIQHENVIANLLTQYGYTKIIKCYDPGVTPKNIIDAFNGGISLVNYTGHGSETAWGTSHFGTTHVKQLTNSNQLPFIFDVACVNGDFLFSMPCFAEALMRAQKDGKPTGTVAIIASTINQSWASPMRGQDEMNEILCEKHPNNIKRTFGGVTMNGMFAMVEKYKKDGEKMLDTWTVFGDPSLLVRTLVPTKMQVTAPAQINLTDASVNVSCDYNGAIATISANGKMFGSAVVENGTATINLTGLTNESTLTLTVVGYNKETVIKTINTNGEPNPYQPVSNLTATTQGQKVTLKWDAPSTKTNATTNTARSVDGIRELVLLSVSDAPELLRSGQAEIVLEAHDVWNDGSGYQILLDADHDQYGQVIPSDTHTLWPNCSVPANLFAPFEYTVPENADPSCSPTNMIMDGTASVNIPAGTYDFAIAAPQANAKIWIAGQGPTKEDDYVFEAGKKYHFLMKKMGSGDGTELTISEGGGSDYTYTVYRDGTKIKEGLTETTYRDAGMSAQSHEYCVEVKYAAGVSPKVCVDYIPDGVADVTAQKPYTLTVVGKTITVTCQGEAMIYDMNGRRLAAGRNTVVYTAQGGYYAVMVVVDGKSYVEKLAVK
As to B1, the OD450nm came to 0.751 and the Ratio OD(Variant)/OD(WT) was 0.871.
In the case of B2, the OD450nm amounted to 0.727 and the Ratio OD(Variant)/OD(WT) was found to be 0.923.
Consider B3, for which the OD450nm was 0.641 and 0.634; the Ratio OD(Variant)/OD(WT) is 0.846 and 0.836.
On to B4, for which the OD450nm was 0.724 and 0.681 and 0.685; the Ratio OD(Variant)/OD(WT) was 0.919 and 0.865 and 0.87.
For B5, the OD450nm came to 0.637 and the Ratio OD(Variant)/OD(WT) turned out to be 0.809.
On the same counts, the results for B6 are 0.759 and 0.898.
For B7, in that order: 0.649 and 0.856.
Consider B8, for which the OD450nm is 0.748 and 0.805; the Ratio OD(Variant)/OD(WT) is 0.885 and 0.953.
As to B9, the OD450nm was 0.736 and 0.741 and 0.714; the Ratio OD(Variant)/OD(WT) was 0.971 and 0.978 and 0.911.
With B10, the OD450nm amounted to 0.784 and the Ratio OD(Variant)/OD(WT) was 0.996.
As to B11, the OD450nm was 0.776 and 0.781; the Ratio OD(Variant)/OD(WT) was 0.985 and 0.992.
As to B12, the OD450nm is 0.639 and 0.636; the Ratio OD(Variant)/OD(WT) is 0.811 and 0.808.
B13: the OD450nm stood at 0.86 and the Ratio OD(Variant)/OD(WT) is 0.998.
For B14, in that order: 0.697 and 0.885.
For the molecule B15, the OD450nm was determined as 0.77 and the Ratio OD(Variant)/OD(WT) was found to be 0.893.
For the molecule B16, the OD450nm was determined as 0.766 and the Ratio OD(Variant)/OD(WT) was determined as 0.973.
For the molecule B17, the OD450nm was 0.838 and 0.817; the Ratio OD(Variant)/OD(WT) is 0.972 and 0.948.
B18: the OD450nm worked out at 0.662 and the Ratio OD(Variant)/OD(WT) amounted to 0.841.
For B19, in that order: 0.813 and 0.943.
On the same counts, the results for B20 are 0.716 and 0.847.
For B21, the OD450nm came to 0.813 and the Ratio OD(Variant)/OD(WT) was 0.943.
On the same counts, the results for B22 are 0.818 and 0.949.
For B23, in that order: 0.753 and 0.891.
On the same counts, the results for B24 are 0.769 and 0.977.
For the molecule B25, the OD450nm stood at 0.681 and the Ratio OD(Variant)/OD(WT) was 0.865.
As for B26, the OD450nm is 0.702 and 0.723; the Ratio OD(Variant)/OD(WT) was 0.814 and 0.839.
In the case of B27, the OD450nm was found to be 0.744 and the Ratio OD(Variant)/OD(WT) is 0.88.
For B28, in that order: 0.762 and 0.902.
As to B29, the OD450nm was 0.823 and the Ratio OD(Variant)/OD(WT) is 0.955.
On the same counts, the results for B30 are 0.64 and 0.844.
As to B31, the OD450nm was 0.67 and the Ratio OD(Variant)/OD(WT) came out at 0.884.
With B32, the OD450nm was 0.808 and 0.747; the Ratio OD(Variant)/OD(WT) was 0.937 and 0.867.
For B33, the OD450nm came out at 0.775 and the Ratio OD(Variant)/OD(WT) was 0.984.
B34: the OD450nm was found to be 0.808 and the Ratio OD(Variant)/OD(WT) was found to be 0.956.
Consider B35, for which the OD450nm is 0.83 and 0.745 and 0.782; the Ratio OD(Variant)/OD(WT) is 0.982 and 0.882 and 0.925.
For the molecule B36, the OD450nm was 0.778 and 0.793 and 0.802; the Ratio OD(Variant)/OD(WT) was 0.903 and 0.92 and 0.93.
B37: the OD450nm worked out at 0.736 and the Ratio OD(Variant)/OD(WT) was found to be 0.971.
